Source: patent US20250145684A1 (IMMATICS BIOTECHNOLOGIES, published 2025)

Each binder was assayed against T1, HLA-B*08:01 (human) (assay: UV peptide exchange ELISA).
T1 construct: MHC monomer first loaded with a UV-sensitive peptide that is cleaved by UV light and exchanged for the test peptide
Description: Candidate peptides for T cell based therapies according to the present invention were further tested for their MHC binding capacity (affinity). The individual peptide-MHC complexes were produced by UV-ligand exchange, where a UV-sensitive peptide is cleaved upon UV-irradiation and exchanged with the peptide of interest as analyzed. Only peptide candidates that can effectively bind and stabilize the peptide-receptive MHC molecules prevent dissociation of the MHC complexes. To determine the yield of the exchange reaction, an ELISA was performed based on the detection of the light chain (β2m) of stabilized MHC complexes. The assay was performed as generally described in Rodenko et al. (Rodenko et al., 2006).
96 well MAXISorp plates (NUNC) were coated over night with 2 ug/ml streptavidin in PBS at room temperature, washed 4× and blocked for 1 h at 37° C. in 2% BSA containing blocking buffer. Refolded HLA-A*02:01/MLA-001 monomers served as standards, covering the range of 15-500 ng/ml. Peptide-MHC monomers of the UV-exchange reaction were diluted 100-fold in blocking buffer. Samples were incubated for 1 h at 37° C., washed four times, incubated with 2 ug/ml HRP conjugated anti-β2m for 1 h at 37° C., washed again and detected with TMB solution that is stopped with […]. Absorption was measured at 450 nm. Candidate peptides that show a high exchange yield (preferably higher than 50%, most preferred higher than 75%) are generally preferred for a generation and production of antibodies or fragments thereof, and/or T cell receptors or fragments thereof, as they show sufficient avidity to the MHC molecules and prevent dissociation of the MHC complexes.
In the case of EVRLKPIL [EVRLKPIL (SEQ ID NO: 22)], the peptide exchange yield is reported as 20 to 50%.
For FPSLFINQF [FPSLFINQF (SEQ ID NO: 213)], the peptide exchange yield was 20 to 50%.
TLRAYVLAL [TLRAYVLAL (SEQ ID NO: 228)] showed a peptide exchange yield of 50 to 75%.
LPYPPQKVV [LPYPPQKVV (SEQ ID NO: 224)] gave a peptide exchange yield of 20 to 50%.
Binder DLVLKRCL [DLVLKRCL (SEQ ID NO: 24)] has a peptide exchange yield of at least 75%.
Binder DVISKGVSL [DVISKGVSL (SEQ ID NO: 211)] has a peptide exchange yield of 20 to 50%.
SEVNKHETAL [SEVNKHETAL (SEQ ID NO: 248)] showed a peptide exchange yield of 20 to 50%.
YMQYGFLSM [YMQYGFLSM (SEQ ID NO: 205)] gave a peptide exchange yield of 20 to 50%.
In the case of NAYEAPSI [NAYEAPSI (SEQ ID NO: 241)], the peptide exchange yield is reported as 20 to 50%.
In the case of RILKRFLAC [RILKRFLAC (SEQ ID NO: 21)], the peptide exchange yield is reported as 50 to 75%.
LPLDSRYVTL [LPLDSRYVTL (SEQ ID NO: 237)] showed a peptide exchange yield of 50 to 75%.
KVIDRKVEL [KVIDRKVEL (SEQ ID NO: 240)] gave a peptide exchange yield of 20 to 50%.
In the case of DNHPRLVTL [DNHPRLVTL (SEQ ID NO: 218)], the peptide exchange yield is reported as 50 to 75%.
LRKRKSPE [LRKRKSPE (SEQ ID NO: 207)] showed a peptide exchange yield of 20 to 50%.
IPFIHLPEI [IPFIHLPEI (SEQ ID NO: 199)] was tested, and the peptide exchange yield was 20 to 50%.
In the case of LDLRQKVL [LDLRQKVL (SEQ ID NO: 196)], the peptide exchange yield is reported as 20 to 50%.
SEPVMRVTL [SEPVMRVTL (SEQ ID NO: 239)] showed a peptide exchange yield of 20 to 50%.
With IPLAIARL [IPLAIARL (SEQ ID NO: 238)] the peptide exchange yield was 50 to 75%.
EEKHFTTL [EEKHFTTL (SEQ ID NO: 192)] showed a peptide exchange yield of 20 to 50%.
HALPPYITVL [HALPPYITVL (SEQ ID NO: 244)] showed a peptide exchange yield of 20 to 50%.
With DVYFHHVL [DVYFHHVL (SEQ ID NO: 230)] the peptide exchange yield was 20 to 50%.
KPQSLQLVL [KPQSLQLVL (SEQ ID NO: 242)] was tested, and the peptide exchange yield was 20 to 50%.
For ETIKGHSVRL [ETIKGHSVRL (SEQ ID NO: 217)], the peptide exchange yield was 20 to 50%.
With RAIEHVLQV [RAIEHVLQV (SEQ ID NO: 194)] the peptide exchange yield was 50 to 75%.
DTHTNTYYL [DTHTNTYYL (SEQ ID NO: 229)] gave a peptide exchange yield of 20 to 50%.
QIMPKAGL [QIMPKAGL (SEQ ID NO: 2)] showed a peptide exchange yield of 50 to 75%.
SRFPGMSVL [SRFPGMSVL (SEQ ID NO: 227)] showed a peptide exchange yield of 20 to 50%.
VRNPKILIL [VRNPKILIL (SEQ ID NO: 219)] showed a peptide exchange yield of 20 to 50%.
With TPEPSVHAL [TPEPSVHAL (SEQ ID NO: 247)] the peptide exchange yield was 20 to 50%.
Binder MPKRAHWGA [MPKRAHWGA (SEQ ID NO: 225)] has a peptide exchange yield of 50 to 75%.
Binder LGGLRLTAL [LGGLRLTAL (SEQ ID NO: 193)] has a peptide exchange yield of 20 to 50%.
With DIKKTNESL [DIKKTNESL (SEQ ID NO: 23)] the peptide exchange yield was 20 to 50%.
GEKLLRPSL [GEKLLRPSL (SEQ ID NO: 231)] showed a peptide exchange yield of 20 to 50%.
EGVPPGTVL [EGVPPGTVL (SEQ ID NO: 243)] showed a peptide exchange yield of 50 to 75%.
Binder EEYKFPSL [EEYKFPSL (SEQ ID NO: 212)] has a peptide exchange yield of 20 to 50%.
Binder ELLNRIYF [ELLNRIYF (SEQ ID NO: 190)] has a peptide exchange yield of 20 to 50%.
For YKAYPSQL [YKAYPSQL (SEQ ID NO: 197)], the peptide exchange yield was 20 to 50%.
GPRGPSSGHPL [GPRGPSSGHPL (SEQ ID NO: 245)] was tested, and the peptide exchange yield was 20 to 50%.
SLKEELLSL [SLKEELLSL (SEQ ID NO: 221)] gave a peptide exchange yield of 50 to 75%.
Binder LPPPQPLSL [LPPPQPLSL (SEQ ID NO: 208)] has a peptide exchange yield of 20 to 50%.
Work on QPNTHQLL [QPNTHQLL (SEQ ID NO: 210)] yielded a peptide exchange yield of 20 to 50%.
Binder QQIDRVVEV [QQIDRVVEV (SEQ ID NO: 249)] has a peptide exchange yield of 20 to 50%.
In the case of MSPLLRSI [MSPLLRSI (SEQ ID NO: 204)], the peptide exchange yield is reported as 20 to 50%.
With EARPPSPAV [EARPPSPAV (SEQ ID NO: 216)] the peptide exchange yield was 20 to 50%.
For STLKKSLEI [STLKKSLEI (SEQ ID NO: 236)], the peptide exchange yield was 20 to 50%.
Work on ILKRFLAC [ILKRFLAC (SEQ ID NO: 20)] yielded a peptide exchange yield of 50 to 75%.
TASAMQHVL [TASAMQHVL (SEQ ID NO: 201)] was tested, and the peptide exchange yield was 50 to 75%.
With AARAPPQAL [AARAPPQAL (SEQ ID NO: 250)] the peptide exchange yield was 20 to 50%.
With VAAARAVPV [VAAARAVPV (SEQ ID NO: 200)] the peptide exchange yield was 20 to 50%.
SRFGKFVQL [SRFGKFVQL (SEQ ID NO: 209)] showed a peptide exchange yield of 20 to 50%.
For DVSARKLRV [DVSARKLRV (SEQ ID NO: 223)], the peptide exchange yield was 20 to 50%.
EGNQKSVI [EGNQKSVI (SEQ ID NO: 195)] showed a peptide exchange yield of 20 to 50%.
VFRVGISF [VFRVGISF (SEQ ID NO: 234)] gave a peptide exchange yield of 20 to 50%.
KLYIHRVTL [KLYIHRVTL (SEQ ID NO: 232)] showed a peptide exchange yield of 20 to 50%.
SPNSLVTIL [SPNSLVTIL (SEQ ID NO: 235)] was tested, and the peptide exchange yield was 50 to 75%.
Binder DAPRHRLL [DAPRHRLL (SEQ ID NO: 214)] has a peptide exchange yield of 20 to 50%.
NPLIEIISI [NPLIEIISI (SEQ ID NO: 215)] was tested, and the peptide exchange yield was 20 to 50%.
With DVKLVFVM [DVKLVFVM (SEQ ID NO: 233)] the peptide exchange yield was 20 to 50%.
Work on LAVRHLSL [LAVRHLSL (SEQ ID NO: 220)] yielded a peptide exchange yield of 20 to 50%.
Binder RPLKPGEVL [RPLKPGEVL (SEQ ID NO: 191)] has a peptide exchange yield of 20 to 50%.
AQKAELIAL [AQKAELIAL (SEQ ID NO: 222)] gave a peptide exchange yield of 20 to 50%.
FPLTSIIAI [FPLTSIIAI (SEQ ID NO: 198)] gave a peptide exchange yield of 50 to 75%.
FTLLRRLSL [FTLLRRLSL (SEQ ID NO: 19)] showed a peptide exchange yield of 50 to 75%.
RIPEKASFL [RIPEKASFL (SEQ ID NO: 202)] was tested, and the peptide exchange yield was 20 to 50%.
DVYTQVSAF [DVYTQVSAF (SEQ ID NO: 203)] gave a peptide exchange yield of 20 to 50%.
In the case of DIYEVAVSL [DIYEVAVSL (SEQ ID NO: 226)], the peptide exchange yield is reported as 50 to 75%.
For RLLQKSKEL [RLLQKSKEL (SEQ ID NO: 246)], the peptide exchange yield was 20 to 50%.
MEFPNKFNTL [MEFPNKFNTL (SEQ ID NO: 206)] was tested, and the peptide exchange yield was 20 to 50%.
